We go through 1 molecule from publication PMC11098746 (2024).

What all share (test): AVEXIS screen signal:noise (double-corrected)
One assay deals with T1, ADP375.
T1 chain: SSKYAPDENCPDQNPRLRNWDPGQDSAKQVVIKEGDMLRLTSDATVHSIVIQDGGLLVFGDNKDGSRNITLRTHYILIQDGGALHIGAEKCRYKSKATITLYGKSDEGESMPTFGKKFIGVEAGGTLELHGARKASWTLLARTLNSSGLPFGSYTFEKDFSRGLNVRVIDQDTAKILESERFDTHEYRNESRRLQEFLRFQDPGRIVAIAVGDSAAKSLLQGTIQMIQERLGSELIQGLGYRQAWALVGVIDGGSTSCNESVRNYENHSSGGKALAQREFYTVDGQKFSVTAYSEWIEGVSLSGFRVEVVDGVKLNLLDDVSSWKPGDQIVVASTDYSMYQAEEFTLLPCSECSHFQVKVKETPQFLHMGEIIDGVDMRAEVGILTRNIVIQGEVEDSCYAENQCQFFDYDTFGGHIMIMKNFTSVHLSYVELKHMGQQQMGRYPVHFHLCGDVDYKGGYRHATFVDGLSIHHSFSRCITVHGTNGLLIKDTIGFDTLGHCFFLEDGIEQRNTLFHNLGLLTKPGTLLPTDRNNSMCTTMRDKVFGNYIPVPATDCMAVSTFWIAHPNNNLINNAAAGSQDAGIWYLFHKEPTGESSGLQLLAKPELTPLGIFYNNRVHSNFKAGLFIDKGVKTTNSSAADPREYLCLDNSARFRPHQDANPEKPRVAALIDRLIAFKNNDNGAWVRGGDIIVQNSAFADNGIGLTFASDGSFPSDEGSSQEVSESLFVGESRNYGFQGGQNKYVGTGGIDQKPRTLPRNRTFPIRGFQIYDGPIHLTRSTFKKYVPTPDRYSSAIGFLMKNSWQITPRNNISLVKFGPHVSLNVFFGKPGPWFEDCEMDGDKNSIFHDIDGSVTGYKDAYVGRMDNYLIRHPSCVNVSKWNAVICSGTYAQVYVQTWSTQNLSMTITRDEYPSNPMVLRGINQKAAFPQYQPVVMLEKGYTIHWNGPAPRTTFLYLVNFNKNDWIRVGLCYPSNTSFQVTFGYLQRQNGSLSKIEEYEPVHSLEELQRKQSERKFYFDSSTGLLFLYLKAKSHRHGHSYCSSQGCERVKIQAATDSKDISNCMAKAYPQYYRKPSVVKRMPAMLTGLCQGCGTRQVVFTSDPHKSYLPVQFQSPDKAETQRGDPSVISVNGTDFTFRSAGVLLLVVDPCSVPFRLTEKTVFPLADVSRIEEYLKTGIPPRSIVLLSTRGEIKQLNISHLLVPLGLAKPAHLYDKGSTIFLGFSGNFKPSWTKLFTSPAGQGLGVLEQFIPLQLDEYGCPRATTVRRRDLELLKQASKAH

The target of the next assay is T2, ADP293.
T2 chain: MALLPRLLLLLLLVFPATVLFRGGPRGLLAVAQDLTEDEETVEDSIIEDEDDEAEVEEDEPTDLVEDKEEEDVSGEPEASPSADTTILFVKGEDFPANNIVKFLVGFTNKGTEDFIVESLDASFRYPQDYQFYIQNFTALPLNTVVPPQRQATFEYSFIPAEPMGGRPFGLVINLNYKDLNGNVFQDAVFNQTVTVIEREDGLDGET

The target of another assay is T3, ADP264.
T3 chain: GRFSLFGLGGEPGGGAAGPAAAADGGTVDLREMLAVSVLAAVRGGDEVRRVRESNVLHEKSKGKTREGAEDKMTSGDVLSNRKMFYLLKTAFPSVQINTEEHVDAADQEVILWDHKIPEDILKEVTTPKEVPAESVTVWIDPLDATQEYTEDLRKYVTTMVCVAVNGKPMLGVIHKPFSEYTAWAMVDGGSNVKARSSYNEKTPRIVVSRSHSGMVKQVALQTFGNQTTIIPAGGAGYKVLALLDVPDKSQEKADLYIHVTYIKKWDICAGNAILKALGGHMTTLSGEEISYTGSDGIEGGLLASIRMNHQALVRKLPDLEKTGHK

The target of the next assay is T4, ADP279.
T4 chain: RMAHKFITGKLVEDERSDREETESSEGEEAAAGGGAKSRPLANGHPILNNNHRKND

A further assay has as its target T5, ADP269.
T5 chain: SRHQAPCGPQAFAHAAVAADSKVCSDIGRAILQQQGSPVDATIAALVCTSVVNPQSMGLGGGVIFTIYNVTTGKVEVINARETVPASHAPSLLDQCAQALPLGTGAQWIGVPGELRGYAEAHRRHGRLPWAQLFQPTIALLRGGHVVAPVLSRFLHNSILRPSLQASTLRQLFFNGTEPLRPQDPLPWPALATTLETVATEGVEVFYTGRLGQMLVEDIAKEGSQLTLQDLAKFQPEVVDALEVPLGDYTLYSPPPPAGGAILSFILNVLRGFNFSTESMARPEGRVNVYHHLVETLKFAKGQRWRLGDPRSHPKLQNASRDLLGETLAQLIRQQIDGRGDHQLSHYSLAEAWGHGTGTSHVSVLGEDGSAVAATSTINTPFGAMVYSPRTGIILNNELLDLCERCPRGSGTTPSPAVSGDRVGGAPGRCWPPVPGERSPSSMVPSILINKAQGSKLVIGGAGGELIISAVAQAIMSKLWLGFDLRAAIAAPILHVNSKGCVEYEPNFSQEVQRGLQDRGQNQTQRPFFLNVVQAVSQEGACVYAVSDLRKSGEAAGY

B1: ADP237 (protein)
chain: TKKKVSVSEINFDSAVDDVQWCGNNHMTVLVKTVKGRLYRSSDGGKIWTNIAGNLADKENNKADPSSNHMNEMTTVDLIMVNSVNKNIVLIIGNQKNHYISEDSGETFRLLNYQNKINFWQFHSTKTHWALVSSWTEACYSNDDNSGECMQTLSLTKDLGRTFQLIDIYVVQFNWGDKESHLEDTIYYTRHKNRNGHQQRFSGWSKDVDFVATHNFGKSVDVLVKQGNKFLISNGYIFVAKLNDVIKQTVNMMVSTDGGKTFNKANLPENIHEKSYTVLDTSEGSIMLHVNHGTSSEKINTGNVYISDASGLNYALSLPNNIRTSSGECEFDRVLSLDGVYIANFLDVNNEIKDEDLRFQNFKSAIEEDIAPFETNTEKRKKQYNKGKNEDAVRTVISFNKGGEWSYLKAPKVDSRGNKYECGDNCYLHLHGITNYHQYAPFYSIENAVGIIMGTGNVGSHLRYESDEVNTFLSRDGGVTWIEAHKGPYIYEYGDYGGLIVMADDLRKTNQIVFSWNEGQSWFDFELGQFSIDVDNIVAEPNSASVEFLVYGTRNDVGVLYHLDFNALGQPLCKGLWAADSVSSDYETWSPTSGNFNDKCILGRKITYTRRKQTSECFNGKDLKRTVDKKPCECTPEDYECETGFTRKIGSYECKPNDPTLTIEGCTSSSYFYANAYRKVPGDICVNGWVPEKVPVPCPSYAPFNKAAK
modifications: bait human Fc-tagged dimer; N-glycosylation sequons mutated in Plasmodium baits
Consider B1, for which the binding score with ADP375 amounted to 24.4; with ADP293 it was 11.1; with ADP264, 9.43; with ADP279, 12.8; in the assay with ADP269, 10.4.
